Test results as given in PMC8280646.
Like-named read-outs stand apart in the source and are kept apart here.

Target: His-tagged hACE2 protein (human) (UniProt Q9BYF1)
Assay: SPR

Sequence of His-tagged hACE2 protein (human) (Q9BYF1 18-740): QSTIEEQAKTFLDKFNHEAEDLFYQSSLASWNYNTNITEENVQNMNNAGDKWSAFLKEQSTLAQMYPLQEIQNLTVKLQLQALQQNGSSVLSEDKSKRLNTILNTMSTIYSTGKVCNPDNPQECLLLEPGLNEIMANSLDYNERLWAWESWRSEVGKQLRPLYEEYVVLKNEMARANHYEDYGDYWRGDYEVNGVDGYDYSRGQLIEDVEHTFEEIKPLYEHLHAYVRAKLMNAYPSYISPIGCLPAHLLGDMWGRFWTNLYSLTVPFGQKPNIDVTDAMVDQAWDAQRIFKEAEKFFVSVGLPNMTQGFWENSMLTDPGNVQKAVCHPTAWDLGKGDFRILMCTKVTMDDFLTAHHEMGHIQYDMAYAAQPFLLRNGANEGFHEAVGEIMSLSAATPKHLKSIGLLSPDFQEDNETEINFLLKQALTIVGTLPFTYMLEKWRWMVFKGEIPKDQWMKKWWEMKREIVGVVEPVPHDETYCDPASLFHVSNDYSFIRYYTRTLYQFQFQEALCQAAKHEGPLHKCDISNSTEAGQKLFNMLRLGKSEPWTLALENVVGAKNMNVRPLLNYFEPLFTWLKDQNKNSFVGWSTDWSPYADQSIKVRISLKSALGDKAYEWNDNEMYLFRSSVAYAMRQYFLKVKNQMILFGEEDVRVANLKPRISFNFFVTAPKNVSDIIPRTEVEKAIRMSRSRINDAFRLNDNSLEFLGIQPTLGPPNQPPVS

| Substance | Kd [nM] | Kd (Fc fusion) [nM] |
| --- | --- | --- |
| RBD | 7.98 |  |
| RBD-Fc | 11.5 |  |
| Human IFNα-RBD-Fc | 12.3 |  |
| mouse IFNα-Pan-RBD-Fc fusion protein (I-P-R-F) (from UniProt P0DTC2 319-541) |  | 11 |
